# Laboratory results reported in patent US20070244048A1 (published 2007).
# Starred links: 1 amine or outer side, 2 acyl side, 3 side chain; linkers in the order of their positions; H or OH if unused. Non-standard residues stand in square brackets, D forms with d. *: point of attachment. Ttds = 1-amino-4,7,10-trioxa-13-tridecanamine succinimic acid spacer, O=C(CCC(=O)[*:2])NCCCOCCOCCOCCCN[*:1]; (PEG)2 40 kDa = branched PEG of 40 kDa linked via the Cys side-chain thiol (code C2 = Cys(PEG)2 40 kDa); Succinimide(1-Et,3-yl) = CCN1C(=O)CC(*)C1=O
# T1: human NMUR1 (human, UniProt Q9HB89 1-426)
# T1 sequence (looked up): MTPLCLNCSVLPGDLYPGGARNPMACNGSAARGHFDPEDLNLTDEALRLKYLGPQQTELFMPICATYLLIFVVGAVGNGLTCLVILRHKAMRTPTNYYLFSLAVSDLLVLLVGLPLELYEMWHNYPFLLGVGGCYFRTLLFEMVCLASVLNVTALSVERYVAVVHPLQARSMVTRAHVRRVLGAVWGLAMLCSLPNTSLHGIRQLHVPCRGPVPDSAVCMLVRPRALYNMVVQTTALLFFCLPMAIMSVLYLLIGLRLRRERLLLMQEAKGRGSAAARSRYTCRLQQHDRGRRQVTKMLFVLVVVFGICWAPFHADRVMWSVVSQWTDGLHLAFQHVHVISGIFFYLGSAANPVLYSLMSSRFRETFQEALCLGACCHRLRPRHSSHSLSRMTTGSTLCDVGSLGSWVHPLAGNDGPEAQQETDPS
# T2: mouse NMUR1-ATG (mouse, UniProt O55040 1-428)
# T2 sequence (looked up): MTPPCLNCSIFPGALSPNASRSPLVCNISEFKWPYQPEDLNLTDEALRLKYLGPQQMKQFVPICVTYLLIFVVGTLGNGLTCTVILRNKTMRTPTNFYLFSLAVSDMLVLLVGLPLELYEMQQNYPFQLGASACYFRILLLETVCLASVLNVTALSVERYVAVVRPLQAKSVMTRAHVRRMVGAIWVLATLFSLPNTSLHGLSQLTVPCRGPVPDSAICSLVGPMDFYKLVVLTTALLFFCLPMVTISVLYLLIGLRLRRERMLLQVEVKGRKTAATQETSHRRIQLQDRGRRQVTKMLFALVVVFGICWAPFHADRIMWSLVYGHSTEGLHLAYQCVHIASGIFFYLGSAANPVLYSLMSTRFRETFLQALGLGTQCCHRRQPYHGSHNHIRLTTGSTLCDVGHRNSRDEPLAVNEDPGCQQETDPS
# T3: mouse NMUR1-CTG (mouse, UniProt O55040 1-428)
# T3 sequence (looked up): T2 sequence (looked up)
# T4: rat NMUR1-ATG (rat, UniProt Q9JJI5 1-425)
# T4 sequence (looked up): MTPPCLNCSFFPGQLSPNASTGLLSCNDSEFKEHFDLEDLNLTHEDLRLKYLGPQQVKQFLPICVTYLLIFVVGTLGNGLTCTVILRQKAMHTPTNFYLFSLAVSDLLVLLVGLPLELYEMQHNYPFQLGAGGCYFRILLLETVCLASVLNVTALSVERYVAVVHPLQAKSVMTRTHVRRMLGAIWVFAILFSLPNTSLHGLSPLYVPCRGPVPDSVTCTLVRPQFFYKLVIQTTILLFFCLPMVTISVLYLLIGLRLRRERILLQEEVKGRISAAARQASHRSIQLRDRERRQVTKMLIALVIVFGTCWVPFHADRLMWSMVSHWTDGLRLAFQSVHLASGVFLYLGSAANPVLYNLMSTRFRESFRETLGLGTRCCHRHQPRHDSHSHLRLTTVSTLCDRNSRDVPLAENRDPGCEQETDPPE
# T5: rat NMUR1-TTG (rat, UniProt Q9JJI5 1-425)
# T5 sequence (looked up): T4 sequence (looked up)
# B1: NMU15 (peptide)
# peptide: Ac-C(Succinimide(1-Et,3-yl))[Ttds]FLFRPRN-NH2
# SMILES: CCN1C(=O)CC(SC[C@H](NC(C)=O)C(=O)NCCCOCCOCCOCCCNC(=O)CCC(=O)N[C@@H](Cc2ccccc2)C(=O)N[C@@H](CC(C)C)C(=O)N[C@@H](Cc2ccccc2)C(=O)N[C@@H](CCCNC(=N)N)C(=O)N2CCC[C@H]2C(=O)N[C@@H](CCCNC(=N)N)C(=O)N[C@@H](CC(N)=O)C(N)=O)C1=O
# B2: NMU17 (peptide)
# peptide: Ac-C(Succinimide(1-Et,3-yl))ASQSRGYFLFRPRN-NH2
# SMILES: CCN1C(=O)CC(SC[C@H](NC(C)=O)C(=O)N[C@@H](C)C(=O)N[C@@H](CO)C(=O)N[C@@H](CCC(N)=O)C(=O)N[C@@H](CO)C(=O)N[C@@H](CCCNC(=N)N)C(=O)NCC(=O)N[C@@H](Cc2ccc(O)cc2)C(=O)N[C@@H](Cc2ccccc2)C(=O)N[C@@H](CC(C)C)C(=O)N[C@@H](Cc2ccccc2)C(=O)N[C@@H](CCCNC(=N)N)C(=O)N2CCC[C@H]2C(=O)N[C@@H](CCCNC(=N)N)C(=O)N[C@@H](CC(N)=O)C(N)=O)C1=O
# B3: NMU19 (peptide)
# peptide: Ac-C(Succinimide(1-Et,3-yl))FQSPFASQSRGYFLFRPRN-NH2
# SMILES: CCN1C(=O)CC(SC[C@H](NC(C)=O)C(=O)N[C@@H](Cc2ccccc2)C(=O)N[C@@H](CCC(N)=O)C(=O)N[C@@H](CO)C(=O)N2CCC[C@H]2C(=O)N[C@@H](Cc2ccccc2)C(=O)N[C@@H](C)C(=O)N[C@@H](CO)C(=O)N[C@@H](CCC(N)=O)C(=O)N[C@@H](CO)C(=O)N[C@@H](CCCNC(=N)N)C(=O)NCC(=O)N[C@@H](Cc2ccc(O)cc2)C(=O)N[C@@H](Cc2ccccc2)C(=O)N[C@@H](CC(C)C)C(=O)N[C@@H](Cc2ccccc2)C(=O)N[C@@H](CCCNC(=N)N)C(=O)N2CCC[C@H]2C(=O)N[C@@H](CCCNC(=N)N)C(=O)N[C@@H](CC(N)=O)C(N)=O)C1=O
# Target: T1, human NMUR1
# Experiment: cell-based or functional assay
Binder,% Activity (FLIPR) [%],EC50 (FLIPR) [nM]
B1,91.5,7.7
Ac-C((PEG)2 40 kDa)[Ttds]FLFRPRN-NH2 [NMU16],74,1000
B2,100,5
Ac-C((PEG)2 40 kDa)ASQSRGYFLFRPRN-NH2 [NMU18],97.1,68.1
B3,95.9,38.9
Ac-C((PEG)2 40 kDa)FQSPFASQSRGYFLFRPRN-NH2 [NMU20],100,16.4
Ac-C(PEG 20 kDa)FRVDEEFQSPFASQSRGYFLFRPRN-NH2 [NMU21],93.2,14.5
"Ac-C(Succinimide(1-Et,3-yl))C(Succinimide(1-Et,3-yl))FRVDEEFQSPFASQSRGYFLFRPRN-NH2 [NMU22]",95.6,10.2
Ac-C(PEG 20 kDa)C(PEG 20 kDa)FRVDEEFQSPFASQSRGYFLFRPRN-NH2 [NMU23],66.9,300

# Target: human NMUR2 (human, UniProt Q9GZQ4 1-415)
# Experiment: cell-based or functional assay
# human NMUR2, sequence (Q9GZQ4 whole entry): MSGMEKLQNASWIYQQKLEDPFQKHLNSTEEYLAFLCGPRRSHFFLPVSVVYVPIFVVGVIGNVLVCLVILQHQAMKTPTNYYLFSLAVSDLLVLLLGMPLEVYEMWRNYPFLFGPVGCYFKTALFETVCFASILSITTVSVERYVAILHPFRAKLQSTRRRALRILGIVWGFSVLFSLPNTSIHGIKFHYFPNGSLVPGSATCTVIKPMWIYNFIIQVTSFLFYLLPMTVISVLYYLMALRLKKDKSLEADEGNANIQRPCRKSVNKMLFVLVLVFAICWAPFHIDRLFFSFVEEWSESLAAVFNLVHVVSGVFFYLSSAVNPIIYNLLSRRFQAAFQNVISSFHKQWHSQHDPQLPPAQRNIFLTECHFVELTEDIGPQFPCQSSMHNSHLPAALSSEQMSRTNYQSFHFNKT
Binder,% Activity (FLIPR) [%],EC50 (FLIPR) [nM]
B1,101,4.2
Ac-C((PEG)2 40 kDa)[Ttds]FLFRPRN-NH2 [NMU16],75,1000
B2,99.8,1.5
Ac-C((PEG)2 40 kDa)ASQSRGYFLFRPRN-NH2 [NMU18],101,65.7
B3,105,11.5
Ac-C((PEG)2 40 kDa)FQSPFASQSRGYFLFRPRN-NH2 [NMU20],100,13
Ac-C(PEG 20 kDa)FRVDEEFQSPFASQSRGYFLFRPRN-NH2 [NMU21],97.9,24.2
"Ac-C(Succinimide(1-Et,3-yl))C(Succinimide(1-Et,3-yl))FRVDEEFQSPFASQSRGYFLFRPRN-NH2 [NMU22]",105,6.5
Ac-C(PEG 20 kDa)C(PEG 20 kDa)FRVDEEFQSPFASQSRGYFLFRPRN-NH2 [NMU23],71.7,1000

# Target: T2, mouse NMUR1-ATG
# Experiment: cell-based or functional assay
Binder,% Activity (FLIPR) [%],EC50 (FLIPR) [nM]
B1,100,1.5
Ac-C((PEG)2 40 kDa)[Ttds]FLFRPRN-NH2 [NMU16],100,24.1
B2,100,1.2
Ac-C((PEG)2 40 kDa)ASQSRGYFLFRPRN-NH2 [NMU18],100,15.2
B3,100,7.9
Ac-C((PEG)2 40 kDa)FQSPFASQSRGYFLFRPRN-NH2 [NMU20],100,12.7
Ac-C(PEG 20 kDa)FRVDEEFQSPFASQSRGYFLFRPRN-NH2 [NMU21],100,9.1
"Ac-C(Succinimide(1-Et,3-yl))C(Succinimide(1-Et,3-yl))FRVDEEFQSPFASQSRGYFLFRPRN-NH2 [NMU22]",100,6.2
Ac-C(PEG 20 kDa)C(PEG 20 kDa)FRVDEEFQSPFASQSRGYFLFRPRN-NH2 [NMU23],100,14

# Target: T3, mouse NMUR1-CTG
# Experiment: cell-based or functional assay
Binder,% Activity (FLIPR) [%],EC50 (FLIPR) [nM]
B1,100,4
Ac-C((PEG)2 40 kDa)[Ttds]FLFRPRN-NH2 [NMU16],57.2,651
B2,117,2.9
Ac-C((PEG)2 40 kDa)ASQSRGYFLFRPRN-NH2 [NMU18],57.7,693
B3,111,22.5
Ac-C((PEG)2 40 kDa)FQSPFASQSRGYFLFRPRN-NH2 [NMU20],65.4,480
Ac-C(PEG 20 kDa)FRVDEEFQSPFASQSRGYFLFRPRN-NH2 [NMU21],90.8,56.3
"Ac-C(Succinimide(1-Et,3-yl))C(Succinimide(1-Et,3-yl))FRVDEEFQSPFASQSRGYFLFRPRN-NH2 [NMU22]",100,43.5
Ac-C(PEG 20 kDa)C(PEG 20 kDa)FRVDEEFQSPFASQSRGYFLFRPRN-NH2 [NMU23],50.9,770

# Target: mouse NMUR2 (mouse, UniProt Q8BZ39 1-395)
# Experiment: cell-based or functional assay
# mouse NMUR2, sequence (Q8BZ39 whole entry): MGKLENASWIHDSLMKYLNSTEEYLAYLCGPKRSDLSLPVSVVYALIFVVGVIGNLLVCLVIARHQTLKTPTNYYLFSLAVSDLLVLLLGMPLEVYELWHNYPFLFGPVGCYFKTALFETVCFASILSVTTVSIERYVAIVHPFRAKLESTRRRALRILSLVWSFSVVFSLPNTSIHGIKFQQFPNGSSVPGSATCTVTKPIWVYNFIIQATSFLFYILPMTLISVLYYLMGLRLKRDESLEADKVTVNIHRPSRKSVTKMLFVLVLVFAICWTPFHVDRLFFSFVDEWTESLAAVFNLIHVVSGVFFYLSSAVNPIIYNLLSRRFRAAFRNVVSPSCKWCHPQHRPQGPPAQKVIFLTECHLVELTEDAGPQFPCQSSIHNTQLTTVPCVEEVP
Binder,% Activity (FLIPR) [%],EC50 (FLIPR) [nM]
B1,100,0.6
Ac-C((PEG)2 40 kDa)[Ttds]FLFRPRN-NH2 [NMU16],97.4,138
B2,100,0.5
Ac-C((PEG)2 40 kDa)ASQSRGYFLFRPRN-NH2 [NMU18],100,50.2
B3,100,5.6
Ac-C((PEG)2 40 kDa)FQSPFASQSRGYFLFRPRN-NH2 [NMU20],100,14.8
Ac-C(PEG 20 kDa)FRVDEEFQSPFASQSRGYFLFRPRN-NH2 [NMU21],100,1.6
"Ac-C(Succinimide(1-Et,3-yl))C(Succinimide(1-Et,3-yl))FRVDEEFQSPFASQSRGYFLFRPRN-NH2 [NMU22]",100,6.9
Ac-C(PEG 20 kDa)C(PEG 20 kDa)FRVDEEFQSPFASQSRGYFLFRPRN-NH2 [NMU23],100,21.3

# Target: T4, rat NMUR1-ATG
# Experiment: cell-based or functional assay
Binder,% Activity (FLIPR) [%],EC50 (FLIPR) [nM]
B1,100,4.2
Ac-C((PEG)2 40 kDa)[Ttds]FLFRPRN-NH2 [NMU16],75.4,418
B2,100,0.9
Ac-C((PEG)2 40 kDa)ASQSRGYFLFRPRN-NH2 [NMU18],95.9,28.6
B3,100,6.8
Ac-C((PEG)2 40 kDa)FQSPFASQSRGYFLFRPRN-NH2 [NMU20],100,7.2
Ac-C(PEG 20 kDa)FRVDEEFQSPFASQSRGYFLFRPRN-NH2 [NMU21],99.9,19.5
"Ac-C(Succinimide(1-Et,3-yl))C(Succinimide(1-Et,3-yl))FRVDEEFQSPFASQSRGYFLFRPRN-NH2 [NMU22]",100,14
Ac-C(PEG 20 kDa)C(PEG 20 kDa)FRVDEEFQSPFASQSRGYFLFRPRN-NH2 [NMU23],76.4,127

# Target: T5, rat NMUR1-TTG
# Experiment: cell-based or functional assay
Binder,% Activity (FLIPR) [%],EC50 (FLIPR) [nM]
B1,108,24.6
Ac-C((PEG)2 40 kDa)[Ttds]FLFRPRN-NH2 [NMU16],34.6,1000
B2,105,4.9
Ac-C((PEG)2 40 kDa)ASQSRGYFLFRPRN-NH2 [NMU18],90.7,105
B3,100,12.8
Ac-C((PEG)2 40 kDa)FQSPFASQSRGYFLFRPRN-NH2 [NMU20],93.8,24.4
Ac-C(PEG 20 kDa)FRVDEEFQSPFASQSRGYFLFRPRN-NH2 [NMU21],77.5,220
"Ac-C(Succinimide(1-Et,3-yl))C(Succinimide(1-Et,3-yl))FRVDEEFQSPFASQSRGYFLFRPRN-NH2 [NMU22]",96.4,39.1
Ac-C(PEG 20 kDa)C(PEG 20 kDa)FRVDEEFQSPFASQSRGYFLFRPRN-NH2 [NMU23],39.8,1000

# Target: rat NMUR2 (rat, UniProt Q9ESQ4 1-395)
# Experiment: cell-based or functional assay
# rat NMUR2, sequence (Q9ESQ4 whole entry): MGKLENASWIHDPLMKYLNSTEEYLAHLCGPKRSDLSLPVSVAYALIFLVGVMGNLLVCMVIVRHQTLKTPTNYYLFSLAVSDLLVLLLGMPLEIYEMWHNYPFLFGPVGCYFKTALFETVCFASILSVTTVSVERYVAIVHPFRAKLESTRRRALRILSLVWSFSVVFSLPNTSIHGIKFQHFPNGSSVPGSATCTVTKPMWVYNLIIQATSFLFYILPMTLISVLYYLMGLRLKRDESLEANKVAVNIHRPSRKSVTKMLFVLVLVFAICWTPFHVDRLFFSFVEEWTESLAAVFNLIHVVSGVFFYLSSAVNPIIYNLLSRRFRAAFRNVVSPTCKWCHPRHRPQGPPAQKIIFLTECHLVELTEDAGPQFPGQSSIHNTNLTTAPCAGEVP
Binder,% Activity (FLIPR) [%],EC50 (FLIPR) [nM]
B1,100,2.2
Ac-C((PEG)2 40 kDa)[Ttds]FLFRPRN-NH2 [NMU16],86.9,315
B2,100,1.2
Ac-C((PEG)2 40 kDa)ASQSRGYFLFRPRN-NH2 [NMU18],96.7,63
B3,100,8.7
Ac-C((PEG)2 40 kDa)FQSPFASQSRGYFLFRPRN-NH2 [NMU20],100,16.9
Ac-C(PEG 20 kDa)FRVDEEFQSPFASQSRGYFLFRPRN-NH2 [NMU21],99.2,7
"Ac-C(Succinimide(1-Et,3-yl))C(Succinimide(1-Et,3-yl))FRVDEEFQSPFASQSRGYFLFRPRN-NH2 [NMU22]",98.8,17.1
Ac-C(PEG 20 kDa)C(PEG 20 kDa)FRVDEEFQSPFASQSRGYFLFRPRN-NH2 [NMU23],90.2,47.4
